The nature of data set [1]: duplex formation enthalpy ΔH (Van't Hoff fit of HRM Tm); higher = less exothermic duplex formation. To be noted: temperature for dG: 50 °C, NaCl: 500 mM (unadjusted). As for the experimental part:
(§1)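 Duplex of the listed DNA strand with its complement, in 1x NNE buffer (500 mM NaCl, pH 7.0) with 1x EvaGreen. ΔH and ΔS come from a Van't Hoff linear fit of 1/Tm against ln(CT/4) over 1-20 uM, using HRM Tm values.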

A short description of data set [2]: duplex formation free energy ΔG50 (Van't Hoff fit of HRM Tm); higher = less stable duplex. The conditions noted are these: temperature for dG: 50 °C, NaCl: 500 mM (unadjusted). As for the experimental part:
as §1

Data set [3] can be described thus: duplex formation entropy ΔS (Van't Hoff fit of HRM Tm); higher = smaller entropy loss on duplex formation. To be noted: temperature for dG: 50 °C, NaCl: 500 mM (unadjusted). The procedure: as §1
Data set [4] is described as follows: duplex melting temperature (HRM, EvaGreen); higher = more stable duplex. As for the experimental part: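 Listed DNA strand annealed 1:1 with its complementary strand (95 °C 5 min, 0.1 °C/s to 20 °C). Melted in 1x NNE buffer (500 mM NaCl, 10 mM Na2HPO4, 1 mM EDTA, pH 7.0) with 1x EvaGreen on a LightCycler96 (37 to 97 °C, 0.1 °C/s). Tm is the peak of -dF/dT at the stated total duplex concentration; 4 replicates are averaged. PS oligos are non-stereospecific (Rp/Sp mixtures).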

Where [5] appears, read: backbone: PO-PO (both strands phosphodiester DNA).
Where [6] appears, read: backbone: PS-PO (listed strand fully phosphorothioate, complement phosphodiester).
Setting [7] is: backbone: PS-PS (both strands fully phosphorothioate).
[8] abbreviates: duplex concentration 1 µM, backbone: PS-PO (listed strand fully phosphorothioate, complement phosphodiester).
[9] abbreviates: duplex concentration 1 µM, backbone: PS-PS (both strands fully phosphorothioate).
Where [10] appears, read: duplex concentration 2.5 µM, backbone: PO-PO (both strands phosphodiester DNA).
[11] abbreviates: duplex concentration 2.5 µM, backbone: PS-PO (listed strand fully phosphorothioate, complement phosphodiester).
Where [12] appears, read: duplex concentration 2.5 µM, backbone: PS-PS (both strands fully phosphorothioate).
[13] abbreviates: duplex concentration 5 µM, backbone: PO-PO (both strands phosphodiester DNA).
Where [14] appears, read: duplex concentration 5 µM, backbone: PS-PO (listed strand fully phosphorothioate, complement phosphodiester).
Setting [15] is: duplex concentration 5 µM, backbone: PS-PS (both strands fully phosphorothioate).
Setting [16] is: duplex concentration 7.5 µM, backbone: PO-PO (both strands phosphodiester DNA).
Setting [17] is: duplex concentration 7.5 µM, backbone: PS-PO (listed strand fully phosphorothioate, complement phosphodiester).
Where [18] appears, read: duplex concentration 7.5 µM, backbone: PS-PS (both strands fully phosphorothioate).
Where [19] appears, read: duplex concentration 10 µM, backbone: PO-PO (both strands phosphodiester DNA).
Where [20] appears, read: duplex concentration 10 µM, backbone: PS-PO (listed strand fully phosphorothioate, complement phosphodiester).
Setting [21] is: duplex concentration 10 µM, backbone: PS-PS (both strands fully phosphorothioate).
The mark [22] stands for this setting: duplex concentration 15 µM, backbone: PO-PO (both strands phosphodiester DNA).
The mark [23] stands for this setting: duplex concentration 15 µM, backbone: PS-PO (listed strand fully phosphorothioate, complement phosphodiester).
Where [24] appears, read: duplex concentration 15 µM, backbone: PS-PS (both strands fully phosphorothioate).
Where [25] appears, read: duplex concentration 20 µM, backbone: PO-PO (both strands phosphodiester DNA).
Where [26] appears, read: duplex concentration 20 µM, backbone: PS-PO (listed strand fully phosphorothioate, complement phosphodiester).
Where [27] appears, read: duplex concentration 20 µM, backbone: PS-PS (both strands fully phosphorothioate).

± gives the standard deviation of the averaged measurements or the uncertainty stated by the source.

For GCCCGAGCATGACTGCG, the “duplex formation enthalpy ΔH” value is -98.8 ± 4.5 kcal/mol in data set [1] (setting [5]), -83.7 ± 1.9 kcal/mol in data set [1] (setting [6]) and -86.9 ± 2.4 kcal/mol in data set [1] (setting [7]). Besides, the “duplex formation free energy ΔG50” value is -16.3 ± 0.36 kcal/mol in data set [2] (setting [5]), -13.6 ± 0.11 kcal/mol in data set [2] (setting [6]) and -12.16 ± 0.1 kcal/mol in data set [2] (setting [7]). In addition, the “duplex formation entropy ΔS” value is -255 ± 13 cal/mol/K in data set [3] (setting [5]), -217 ± 5.5 cal/mol/K in data set [3] (setting [6]) and -231 ± 7.1 cal/mol/K in data set [3] (setting [7]). The duplex melting temperature in data set [4] (setting [8]) was found to be 65.4 ± 0.24 °C; in data set [4] (setting [9]) it was 59.02 ± 0.17 °C; in data set [4] (setting [10]) it was 75.41 ± 0.19 °C; in data set [4] (setting [11]), 68.14 ± 0.36 °C; in data set [4] (setting [12]), 61.59 ± 0.3 °C; in data set [4] (setting [13]), 76.97 ± 0.085 °C. Moreover, the duplex melting temperature in data set [4] (setting [14]) was 70 ± 0.11 °C; in data set [4] (setting [15]) it was 63.37 ± 0.21 °C; in data set [4] (setting [16]), 77.92 ± 0.1 °C; in data set [4] (setting [17]), 71.104 ± 0.068 °C; in data set [4] (setting [18]), 64.41 ± 0.16 °C; in data set [4] (setting [19]), 78.54 ± 0.1 °C. Besides, the duplex melting temperature came to 71.926 ± 0.031 °C in data set [4] (setting [20]); 65.09 ± 0.084 °C in data set [4] (setting [21]); 79.72 ± 0.12 °C in data set [4] (setting [22]); 73.02 ± 0.13 °C in data set [4] (setting [23]); 66.12 ± 0.12 °C in data set [4] (setting [24]); 80.63 ± 0.26 °C in data set [4] (setting [25]). For the same sequence, the duplex melting temperature in data set [4] (setting [26]) was 73.82 ± 0.14 °C; in data set [4] (setting [27]), 66.8 ± 0.27 °C.
For AGCACGGTGGTACAACA, the “duplex formation enthalpy ΔH” value in data set [1] (setting [5]) was -71.3 ± 2.6 kcal/mol; in data set [1] (setting [6]), -78.6 ± 2 kcal/mol; in data set [1] (setting [7]), -67.6 ± 3.5 kcal/mol. The entries for the “duplex formation free energy ΔG50” value in data set [2] (setting [5]), in data set [2] (setting [6]) and in data set [2] (setting [7]) were -12.8 ± 0.17 kcal/mol, -12.23 ± 0.093 kcal/mol and -9.892 ± 0.075 kcal/mol, respectively. Moreover, the figures for the “duplex formation entropy ΔS” value in data set [3] (setting [5]), in data set [3] (setting [6]) and in data set [3] (setting [7]) were -181 ± 7.5 cal/mol/K, -205 ± 5.8 cal/mol/K and -179 ± 11 cal/mol/K, respectively. For the same sequence, the duplex melting temperature in data set [4] (setting [8]) is 60.27 ± 0.38 °C; in data set [4] (setting [9]), 50.09 ± 0.18 °C; in data set [4] (setting [10]), 67.58 ± 0.38 °C; in data set [4] (setting [11]), 63.2 ± 0.2 °C; in data set [4] (setting [12]) it was 53.82 ± 0.069 °C; in data set [4] (setting [13]) it was 69.83 ± 0.28 °C. In addition, the duplex melting temperature in data set [4] (setting [14]) was 65.28 ± 0.1 °C; in data set [4] (setting [15]), 56.17 ± 0.085 °C; in data set [4] (setting [16]), 71.17 ± 0.15 °C; in data set [4] (setting [17]), 66.25 ± 0.082 °C; in data set [4] (setting [18]) it was 57.1 ± 0.12 °C; in data set [4] (setting [19]) it was 72.2 ± 0.18 °C. Also, the duplex melting temperature is 67.06 ± 0.081 °C in data set [4] (setting [20]); 57.92 ± 0.08 °C in data set [4] (setting [21]); 73.4 ± 0.13 °C in data set [4] (setting [22]); 68.18 ± 0.11 °C in data set [4] (setting [23]); 59.07 ± 0.11 °C in data set [4] (setting [24]); 74.39 ± 0.17 °C in data set [4] (setting [25]). For the same sequence, the values for the duplex melting temperature in data set [4] (setting [26]) and in data set [4] (setting [27]) were 69.05 ± 0.15 °C and 59.74 ± 0.13 °C, respectively.
Take CGGCGCGCTG: the duplex melting temperature in data set [4] (setting [9]) was found to be 44.8 ± 1.1 °C; in data set [4] (setting [10]) it was 66.4 °C; in data set [4] (setting [12]), 47 ± 1.1 °C; in data set [4] (setting [13]), 67.7 ± 0.9 °C; in data set [4] (setting [14]), 64.9 ± 1.3 °C; in data set [4] (setting [15]), 50 ± 1.2 °C. For the same sequence, the duplex melting temperature was found to be 69.25 ± 0.52 °C in data set [4] (setting [16]); 66.2 ± 0.84 °C in data set [4] (setting [17]); 70.35 ± 0.13 °C in data set [4] (setting [19]); 67.43 ± 0.12 °C in data set [4] (setting [20]); 70.84 ± 0.39 °C in data set [4] (setting [22]); 68.41 ± 0.079 °C in data set [4] (setting [23]). The values for the duplex melting temperature in data set [4] (setting [25]) and in data set [4] (setting [26]) were 72.07 ± 0.61 °C and 69.27 ± 0.21 °C, respectively.

Values taken from the supplement of paper PMC9116672.
